Consider 53 substances from US20170037111A1, “Novel peptides and combination of peptides for use in immunotherapy against ovarian cancer and other cancers” (immatics biotechnologies GmbH, priority 2015, published 2017).

For this assay, the target named is HLA-A*02:01 (Homo sapiens, UniProt P04439, D140Y/D185E/D98H/E176V/E277Q/G131W/G231S/I119V/I121R/I166T/I218V/L300P/L318F/N151K/N90K/P208A/P217A/Q86G/Q94H/R138H/R169H/T345S). In words: MHC binding assay (UV-ligand exchange, β2m ELISA, peptide exchange yield). As to conditions: MHC class I binding score; binding to HLA-A*02:01 ranged by peptide exchange yield (UV-ligand exchange, β2m ELISA). An outline of the steps: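 Peptide–HLA-A*02:01 complexes were formed by UV-mediated exchange of a UV-cleavable ligand for the test peptide. Exchange yield was measured by capturing complexes on streptavidin, detecting with HRP anti-β2m antibody (1 h, 37°C) and reading TMB absorbance at 450 nm.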
A general note: In an ELISA, binding on a coated surface is turned into a signal by an enzyme label.

On to “345 (VIWKALIHL; listed as Homo sapiens) [compound 345]”, for which the Peptide exchange result is listed as “″+++″ (≧50% = +++)”.

“171 (LLLPLQILL; listed as Homo sapiens) [compound 171]”: the Peptide exchange entry is given as “″+++″ (≧50% = +++)”.

As for “181 (LLWAGTAFQV; listed as Homo sapiens) [compound 181]”, the Peptide exchange entry was “″+++″ (≧50% = +++)”.

As for “66 (FLDENIGGVAV; listed as Homo sapiens) [compound 66]”, the Peptide exchange entry is “″+++″ (≧50% = +++)”.

As to “238 (YLISFQTHI; listed as Homo sapiens) [compound 238]”, the Peptide exchange result was “″+++″ (≧50% = +++)”.

“390 (ALFMKQIYL; listed as Homo sapiens) [compound 390]”: the Peptide exchange entry is recorded as “″+++″ (≧50% = +++)”.

Consider “271 (LVYPLELYPA; listed as Homo sapiens) [compound 271]”, for which the Peptide exchange entry was “″+++″ (≧50% = +++)”.

As for “473 (AMATESILHFA; listed as Homo sapiens) [compound 473]”, the Peptide exchange entry is listed as “″+++″ (≧50% = +++)”.

Turning to “273 (NLFQSVREV; listed as Homo sapiens) [compound 273]”, the Peptide exchange result is given as “″++″ (≧20% = ++)”.

Take “258 (ELAERVPAI; listed as Homo sapiens) [compound 258]”: the Peptide exchange entry is “″++″ (≧20% = ++)”.

Consider “605 (KLYEAVPQL; listed as Homo sapiens) [compound 605]”, for which the Peptide exchange result was “″+++″ (≧50% = +++)”.

As to “433 (AMLNEPWAV; listed as Homo sapiens) [compound 433]”, the Peptide exchange result is recorded as “″+++″ (≧50% = +++)”.

Take “232 (ALLEAQDVELYL; listed as Homo sapiens) [compound 232]”: the Peptide exchange entry was “″++″ (≧20% = ++)”.

In the case of “393 (GLLDTQTSQVLTA; listed as Homo sapiens) [compound 393]”, the Peptide exchange result is “″++″ (≧20% = ++)”.

For the substance “580 (LLMENAERV; listed as Homo sapiens) [compound 580]”, the Peptide exchange result is reported as “″++″ (≧20% = ++)”.

“272 (ALGNTVPAV; listed as Homo sapiens) [compound 272]”: the Peptide exchange entry is on record as “″+++″ (≧50% = +++)”.

With “399 (YLFEPLYHV; listed as Homo sapiens) [compound 399]”, the Peptide exchange entry is listed as “″+++″ (≧50% = +++)”.

As to “261 (YVLEFLEEI; listed as Homo sapiens) [compound 261]”, the Peptide exchange result is “″++″ (≧20% = ++)”.

Turning to “308 (SQYSGQLHEV; listed as Homo sapiens) [compound 308]”, the Peptide exchange result is on record as “″+++″ (≧50% = +++)”.

On to “574 (YLLQEPPRTV; listed as Homo sapiens) [compound 574]”, for which the Peptide exchange entry is on record as “″++″ (≧20% = ++)”.

For “451 (LLLLDTVTMQV; listed as Homo sapiens) [compound 451]”, the Peptide exchange entry is “″++″ (≧20% = ++)”.

With “340 (ALLSMTFPL; listed as Homo sapiens) [compound 340]”, the Peptide exchange entry is given as “″++++″ (≧75% = ++++)”.

Turning to “226 (MLYVVPIYL; listed as Homo sapiens) [compound 226]”, the Peptide exchange entry is “″++″ (≧20% = ++)”.

For “97 (SLINGSFLV; listed as Homo sapiens) [compound 97]”, the Peptide exchange entry is reported as “″+++″ (≧50% = +++)”.

As to “267 (ALQDFLLSV; listed as Homo sapiens) [compound 267]”, the Peptide exchange entry was “″+++″ (≧50% = +++)”.

On to “220 (LLQKFVPEI; listed as Homo sapiens) [compound 220]”, for which the Peptide exchange entry is on record as “″++″ (≧20% = ++)”.

For “99 (ALVSKGLATV; listed as Homo sapiens) [compound 99]”, the Peptide exchange result is “″++″ (≧20% = ++)”.

Take “611 (YLLDDGTLVV; listed as Homo sapiens) [compound 611]”: the Peptide exchange entry is “″++++″ (≧75% = ++++)”.

As to “62 (VLLDVSAGQLLM; listed as Homo sapiens) [compound 62]”, the Peptide exchange result was “″++++″ (≧75% = ++++)”.

Consider “622 (RLLGEEVVRVLQA; listed as Homo sapiens) [compound 622]”, for which the Peptide exchange result is “″+++″ (≧50% = +++)”.

Turning to “64 (YAAPGGLIGV; listed as Homo sapiens) [compound 64]”, the Peptide exchange entry is “″++″ (≧20% = ++)”.

Regarding “33 (VLLSLLEKV; listed as Homo sapiens) [compound 33]”, the Peptide exchange result was “″++″ (≧20% = ++)”.

In the case of “479 (SLFGNSGILENV; listed as Homo sapiens) [compound 479]”, the Peptide exchange entry is listed as “″+++″ (≧50% = +++)”.

Consider “556 (FLTDLEDLTL; listed as Homo sapiens) [compound 556]”, for which the Peptide exchange result is “″+++″ (≧50% = +++)”.

Take “334 (TLTKVLVAL; listed as Homo sapiens) [compound 334]”: the Peptide exchange entry was “″+++″ (≧50% = +++)”.

In the case of “385 (SLLEQGLVEA; listed as Homo sapiens) [compound 385]”, the Peptide exchange entry is recorded as “″++″ (≧20% = ++)”.

For “537 (TLAPGEVLRSV; listed as Homo sapiens) [compound 537]”, the Peptide exchange entry is reported as “″+++″ (≧50% = +++)”.

Turning to “337 (HLLSELEAAPYL; listed as Homo sapiens) [compound 337]”, the Peptide exchange result is reported as “″++++″ (≧75% = ++++)”.

Regarding “67 (TLLAEALVTV; listed as Homo sapiens) [compound 67]”, the Peptide exchange result is on record as “″+++″ (≧50% = +++)”.

On to “457 (SLLPGNLVEKV; listed as Homo sapiens) [compound 457]”, for which the Peptide exchange entry is listed as “″+++″ (≧50% = +++)”.

Turning to “455 (SLLKEPQKVQL; listed as Homo sapiens) [compound 455]”, the Peptide exchange entry was “″++″ (≧20% = ++)”.

Turning to “569 (KLVDRTWTL; listed as Homo sapiens) [compound 569]”, the Peptide exchange result is given as “″+++″ (≧50% = +++)”.

Consider “429 (GLVNDLARV; listed as Homo sapiens) [compound 429]”, for which the Peptide exchange entry is given as “″++″ (≧20% = ++)”.

In the case of “255 (VLASYNLTV; listed as Homo sapiens) [compound 255]”, the Peptide exchange result is on record as “″+++″ (≧50% = +++)”.

For “183 (FGLDLVTEL; listed as Homo sapiens) [compound 183]”, the Peptide exchange entry is on record as “″+++″ (≧50% = +++)”.

Turning to “564 (TVTNAVVTV; listed as Homo sapiens) [compound 564]”, the Peptide exchange entry is “″+++″ (≧50% = +++)”.

“297 (VLADIELAQA; listed as Homo sapiens) [compound 297]”: the Peptide exchange entry was “″+++″ (≧50% = +++)”.

For “302 (ALLQEGEVYSA; listed as Homo sapiens) [compound 302]”, the Peptide exchange result is recorded as “″+++″ (≧50% = +++)”.

Consider “591 (SMAELDIKL; listed as Homo sapiens) [compound 591]”, for which the Peptide exchange entry was “″+++″ (≧50% = +++)”.

On to “467 (FLAKDFNFL; listed as Homo sapiens) [compound 467]”, for which the Peptide exchange entry is recorded as “″+++″ (≧50% = +++)”.

For the substance “456 (LLIGHLERV; listed as Homo sapiens) [compound 456]”, the Peptide exchange result was “″+++″ (≧50% = +++)”.

On to “219 (KLSDIGITV; listed as Homo sapiens) [compound 219]”, for which the Peptide exchange entry is listed as “″+++″ (≧50% = +++)”.

Take “560 (ALWDIETGQQTTT; listed as Homo sapiens) [compound 560]”: the Peptide exchange result is “″+++″ (≧50% = +++)”.
